B1: KRT18 (parent)
chain: RAQYDELARKNREELDKYWSQQIE
B2: ADD1 (parent)
chain: LRHSFQKQQREKTRWLNSGRGDEA

Variants of: B1
Test: protein stability index of a GFP-peptide fusion (GPS, HEK-293T) (PSI 1-6); higher = more stable
Settings: c terminus: a fixed tail appended
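Further: lentivirally expressed fusions sorted by FACS into six bins by GFP to DsRed ratio, PSI derived from sequencing read proportions per bin multiplied by bin number.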

Protein stability index: each site, then its substitutions
A2: M 2.65, N 2.52, H 3.23, K 2.65, G 2.33, C 2.48, I 2.5, E 3.34, D 3.18, F 2.73, L 2.51, P 3.13, Q 3.07
R1: A 3.38, K 2.29, W 2.12, P 3.08, N 2.99, L 2.79, C 2.19, G 3.12, H 2.97, T 3.02, M 2.97, Y 2.29, E 3.06, D 2.87, F 2.47, V 3.71, I 2.79, Q 3.07, S 3.06

Variants of: B2
Test: as above
Settings: c terminus: a fixed tail appended

Protein stability index: each site, then its substitutions
K12: W 2.72, G 4.09, T 3.57, V 3.27, F 3.05, H 3.58, Q 3.85, R 3.88, E 4.24, I 3.46, S 3.54, A 4.1, Y 3.48, D 3.96, L 3.51, P 3.56, N 3.73, C 3.79, M 3.42
Q9: E 4.29, N 3.72, T 3.83, K 3.92, S 3.64, I 3.18, H 3.7, V 3.35, P 3.44, D 4.06, F 2.71, M 3.84, Y 3.01, G 4.15, C 1.73, R 3.75, L 3.23, W 2.94
E23: N 3.73, T 3.48, A 3.98, L 2.38, Y 2.66, S 3.83, H 3.23, W 2.77, D 3.6, V 3.47, P 3.75, I 3.24, C 3.54, M 3.25, K 2.73, Q 3.2, R 3.49, G 3.64, F 2.28
R10: T 3.83, D 4.23, A 4.17, E 4.67, P 3.53, M 3.44, H 4.13, Y 3.64, K 3.9, S 4.58, W 2.66, C 3.58, I 3.65, V 3.48, L 3.82, F 3.92, N 3.95, G 3.72, Q 4.44
R20: I 3.54, P 4.17, T 3.75, E 4.28, F 3.21, N 3.62, A 3.84, L 2.24, K 4.03, Q 3.95, Y 3.47, M 3.78, V 3.88, H 4.05, W 3.26, C 3.91, G 3.71, D 4.88, S 4.12
L16: G 4, H 3.42, K 4.22, Y 3.42, A 3.66, M 3.88, R 4.03, D 4.69, I 3.67, N 3.94, Q 4.01, P 4.57, T 3.57, S 4.22, W 2.35, C 4.06, F 3.28, E 4.72
G19: T 3.37, D 4.6, V 2.82, R 3.65, L 3.35, M 3.57, H 3.56, P 3.65, E 4.29, C 2.22, I 2.73, N 3.6, F 2.83, K 3.69, A 3.82, Y 3, S 3.81, W 2.63, Q 3.7
A24: W 1.65, S 3.9, M 3.56, N 4.03, R 3.93, Y 3.18, G 3.96, I 3.15, P 3.58, K 4.12, E 4.52, V 3.56, C 3.51, H 3.31, Q 4.03, D 3.95, F 2.69, T 3.48, L 3.08
R14: K 3.78, A 3.58, I 3.02, V 3.95, D 3.52, S 4.03, F 3.52, Y 2.76, T 3.15, C 2.68, M 3.42, W 3.25, N 3.58, Q 4.3, P 3.86, E 4.59, L 3.02, G 4.03, H 3.98
S18: Q 3.55, E 4.28, M 3.36, G 3.92, N 3.96, V 3.53, D 3.11, H 3.19, R 2.63, A 4.02, F 2.87, W 3.51, K 3.67, T 3.51, C 3.26, L 3.39, Y 3.79, I 3.85, P 3.93
D22: W 1.99, H 3.94, M 3.47, A 3.57, F 3.64, S 3.9, Y 2.78, L 2.71, T 3.29, E 3.89, I 2.68, G 3.62, Q 3.74, R 3.73, C 3.18, N 3.69, K 3.4, P 2.83, V 3.25
G21: P 3.71, H 3.2, T 3.33, I 3.42, S 3.63, E 3.99, Q 3.49, C 3.21, A 4, V 3.59, D 4.42, L 3.64, N 3.43, K 3.84, W 3.03, M 3.4, F 3.39, Y 3.01, R 3.47
T13: L 3.54, K 3.91, F 3.29, N 4.27, R 3.83, S 3.36, I 4.01, H 3.9, E 4.27, M 3.25, P 3.52, Y 2.93, W 2.58, Q 3.2, D 4.12, C 3.6, A 3.53, V 3.26, G 4.07
N17: G 3.82, H 2.54, C 3.15, Y 2.91, F 3.14, M 3.05, K 3.65, R 2.49, E 3.95, Q 3.83, S 3.88, V 4.03, D 3.94, T 3.4, A 3.81, W 2.59, I 2.7, P 4.03, L 3.05
E11: S 3.13, R 3.65, I 2.21, A 3.41, K 3.17, H 3.27, Y 2.36, T 3.11, V 2.88, N 2.57, M 2.26, G 3.27, W 2.56, C 1.93, D 4.47, Q 2.87, P 3.91, F 2.24, L 2.28
W15: L 4.38, G 4.72, N 4.54, Y 4.17, H 5.01, M 4.25, D 4.42, A 4.07, P 4.66, K 4.08, R 4.62, C 3.73, F 4.05, V 3.97, E 4.81, I 4.27, Q 4.84, T 4.65, S 4.68
